Assay [1] concerns the target T1, SLC6A6 (solute carrier family 6 (neurotransmitter transporter, taurine), member 6), human, native on the cell … (human, UniProt P31641 1-620).
T1 construct: also called native SLC6A6; taurine transporter
T1 sequence: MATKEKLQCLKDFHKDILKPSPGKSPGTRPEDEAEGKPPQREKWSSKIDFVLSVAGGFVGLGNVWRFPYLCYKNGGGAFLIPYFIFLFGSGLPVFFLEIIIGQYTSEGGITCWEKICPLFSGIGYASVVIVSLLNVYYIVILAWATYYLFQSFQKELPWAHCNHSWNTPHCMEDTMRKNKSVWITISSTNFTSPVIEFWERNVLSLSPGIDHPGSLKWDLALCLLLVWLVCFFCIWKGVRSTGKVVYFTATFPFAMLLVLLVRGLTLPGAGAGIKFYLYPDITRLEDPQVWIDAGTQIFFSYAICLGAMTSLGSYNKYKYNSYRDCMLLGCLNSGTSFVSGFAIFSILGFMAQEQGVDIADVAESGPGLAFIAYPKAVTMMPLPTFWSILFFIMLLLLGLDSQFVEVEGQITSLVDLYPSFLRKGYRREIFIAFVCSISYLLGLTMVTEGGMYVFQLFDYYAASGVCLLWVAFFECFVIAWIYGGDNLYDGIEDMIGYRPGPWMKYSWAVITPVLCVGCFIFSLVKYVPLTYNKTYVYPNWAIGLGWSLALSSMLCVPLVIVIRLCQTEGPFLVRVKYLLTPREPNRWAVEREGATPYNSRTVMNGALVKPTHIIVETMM
Briefly: flow cytometry on HCT116 cells. On the technique in general: A flow cytometer gives signals particle by particle.

Assay [2] concerns the target T1, SLC6A6 (solute carrier family 6 …). Briefly: flow cytometry on 293T cells (express SLC6A6), antibody 10 ug/mL.
Assay [3] shares this target. In words: immunohistochemistry on breast cancer and uterine cancer tissue sections.
For assay [4] the target is unchanged. Briefly: flow cytometry on HCT116 cells, antibody 10 ug/mL.
Assay [5] addresses T2, SLC6A6 extracellular region partial protein (E. coli recombinant, amino acid residues 143 to 216, C-terminal … (human, UniProt P31641 143-216)).
T2 construct: also called partial protein of the extracellular region of SLC6A6; SLC6A6 partial protein for screening
T2 sequence: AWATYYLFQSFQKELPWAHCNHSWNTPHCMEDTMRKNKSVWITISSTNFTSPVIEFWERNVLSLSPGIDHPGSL
Briefly: competition inhibition test; 402 at 10 ug/mL pre-incubated with recombinant SLC6A6 extracellular region partial protein at 15 ug/mL, read out by immunofluorescence on HCT116 cells.

These results are taken from patent publication WO2015129919A1 (dated 2015).

B1: monoclonal antibody produced by mouse-mouse hybridoma 303 (antibody, V domains shown)
VH: VQLQQPGAEFVKPGTSVKLSCKASGYNFTRYWINWVKLRPGQGLEWIGNIYPATNGINYNEKFKSKATLTVDTFSSTAYMQLSSLASEDSGLYYCARCKTMLSRCAWFPYWGQGTLVTVSA
VL: DIQMTQTTSSLSASLGDRVTINCRASQDISNYLNWYQQKPDGTVKLLIYDTSRLHSRVPSRFSGSGSGTDYSLTISNLEQEDIATYFCQQGNMLPWTFGGGTKLEIK
notes: Mouse IgG from the hybridoma
On to B1, for which, in assay [1], the binding result was “binds”.

B2: monoclonal antibody produced by mouse-mouse hybridoma 419 (antibody, V domains shown)
VH: IQLQQSGPELVKPGASVKVSCKAFGYAFTRHNMYWVKQRHGKCLEWIGYIDPFNGGTSYNQKFKGKATLTVDKSSSTAYMHLNSLTSEDSAVYYCARVYGNYAWFAYWGQGTLVTVSA
VL: DIVMTQSHKFMSTSVGDRVSITCKASQDVSTAVAWYQQIPGQSPKLLIYSSSYRYTGVPDRFTGSGSGTDFTFTISSVQAEDLAVYYCQQHYNTPWTFGGGTKLEIK
notes: Mouse IgG from the hybridoma
In the case of B2, the binding result in assay [2] is “binds”.

B3: monoclonal antibody produced by mouse-mouse hybridoma 422 (antibody, V domains shown)
VH: VQLQQSGPEVVKPGPSLRMSCKASGYFFTGNSMNWVKKTHGRSLEWIGLIDLSNGETRFNQKFKGKATLTVDKSSGTAYMELLNLTSEDSAVYYCASRSAMIMPCFSHWGQGTLVTVSA
VL: DIVMTQSHNFMSTSIGDRVNITCKASQDVATAVAWFQQKPGQSPKLLIYWTSTRHTGVPDRFTGSGYGTDFTLTISHVQSEDLADYFCQQYDTYPYTFGGGTKLEIK
notes: Mouse IgG from the hybridoma; also called antibody clone 422
Turning to B3, the binding result in assay [1] was “binds”.

B4: monoclonal antibody produced by mouse-mouse hybridoma 205 (antibody, V domains shown)
VH: VKLQQSGPELVKPGASVKMSCKASGYTFTSYVMHWVKQKPGQGLEWIGYINPYNDGTKYNEKFKGKATLTSDKSSSTAYMELSSLTSEDSAVYYCARRKAWFAYWGQGTLVTVSA
VL: DIQMTQSPASQSASLGESVTITCLASQTIGTWLAWYQQKPGKSPQLLIYAATSLADGVPSRFSGSGSGTKFSFKISSLQAEDFVSYYCQQLYSTPLTFGGGTKLEIK
notes: Mouse IgG from the hybridoma
Take B4: the binding result in assay [3] was “binds”.

B5: antibody clone 402 human-mouse chimeric antibody (antibody, human IgG1, kappa, V domains shown)
VH: QVKLQQSGPELVKPGASVKVSCTASGYAFTQYNLYWVKLRHGKCPKWIGSIDPYIGGTTYNQQFKDKVTLTVDKSSSTAYLHLNSLTSEDSAIYYCARWWDGYFDVWGAGTTVTVSS
VL: QIVLTQSPAIMSASLGERVTLTCTASSSVISRYLHWYQVKPGSSPKLWIYSTSNLASGVPTRFSGSGSGTSYSLTISNMEAEDAATYYCHQYHRSPLTFGAGTKLELTR
notes: Human IgG1 heavy chain constant region and human kappa constant region, expressed in Expi293F cells; also called c402 mAb
For B5, in assay [4], the binding result was “binds”.

B6: monoclonal antibody produced by mouse-mouse hybridoma 402 (antibody, V domains shown)
VH: VKLQQSGPELVKPGASVKVSCTASGYAFTQYNLYWVKLRHGKCPKWIGSIDPYIGGTTYNQQFKDKVTLTVDKSSSTAYLHLNSLTSEDSAIYYCARWWDGYFDVWGAGTTVTVSS
VL: QIVLTQSPAIMSASLGERVTLTCTASSSVISRYLHWYQVKPGSSPKLWIYSTSNLASGVPTRFSGSGSGTSYSLTISNMEAEDAATYYCHQYHRSPLTFGAGTKLELT
notes: Mouse IgG from the hybridoma
Regarding B6, the binding result in assay [1] and in assay [5] was “binds” in each case.

B7: monoclonal antibody produced by mouse-mouse hybridoma 430 (antibody, V domains shown)
VH: IQLQQSGPEVVKPGTSVRVSCTASGYAFTQYNLYWVKLRHGKCPKWIGSIDPYIGGANYNQQFKDKVTLTVDKSSSTAYLHLNSLTSEDSAIYYCARWWDGYFDVWGAGTTVTVSS
VL: QIVLTQSPAIMSASLGERVTMTCTASSSVSFRYLHWYQVKPGSSPKLWIYSTSNLASGVPSRISGSGSGTSYFLTISNMEAEDAATYYCHQYHRSPLTFGAGTKLELT
notes: Mouse IgG from the hybridoma; also called antibody clone 430; 430 antibody
For the molecule B7, the binding result in assay [1] is reported as “binds”.
